# Measurements published in PMC7060329, “Pathway-specific enzymes from bamboo and crop leaves biosynthesize anti-nociceptive C-glycosylated flavones” (Communications Biology, 2020).
# T1: SbF2H (CYP93G3; SbCYP93G3) (Sorghum bicolor, UniProt C5X6I4)
# T1 construct: gene SORBI_3002G000400; N-terminal transmembrane region cut (borders not in text) and replaced with 2B1dH tag; codon-optimized; in E. coli with AtCPR2
# T1 sequence (C5X6I4 42-541 limits assumed): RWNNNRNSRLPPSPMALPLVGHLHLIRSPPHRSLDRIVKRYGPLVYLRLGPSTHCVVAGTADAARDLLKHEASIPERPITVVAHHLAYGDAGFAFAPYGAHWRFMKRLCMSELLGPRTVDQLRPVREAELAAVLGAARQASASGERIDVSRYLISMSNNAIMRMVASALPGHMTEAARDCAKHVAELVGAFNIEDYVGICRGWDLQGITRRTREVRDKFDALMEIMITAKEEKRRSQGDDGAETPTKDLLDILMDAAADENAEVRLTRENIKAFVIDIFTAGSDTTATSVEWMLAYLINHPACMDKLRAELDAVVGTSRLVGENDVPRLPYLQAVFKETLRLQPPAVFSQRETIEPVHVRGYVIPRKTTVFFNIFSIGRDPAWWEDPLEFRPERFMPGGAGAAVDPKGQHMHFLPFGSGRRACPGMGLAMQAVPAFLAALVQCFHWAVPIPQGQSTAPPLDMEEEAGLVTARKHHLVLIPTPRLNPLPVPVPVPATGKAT
# B1: PhUGT708A43 (PhCGT1) (Phyllostachys edulis) (protein)
# chain: MPTSGGRTGDRPHVILLPSAGMGHLVPFSRLAVALSSGHGCDVSVVAVLPTVSAAESRHLQGLLDASPAVRRLDLHLAPFDESEFPGADPFFLRFEAMRRSAPLLGPLLADTGASALVTDIALASVVIPVAKEIHLPCYVLFTASAAMLSFCAYFPTYLDTNAGRVVGDVDIPGVYRIPKASIPQALHDPNHLFTRQFVANGQDLAKADGVLVNTFDALELEAVTALRQGSVAAGFPPVFSVGPLVTVNLPAGEAAKESGNDYMYWLDAQPAQSVVYVSFGSRKAISRDQVRELAIGLEASGQPFLWVVKSTVVDRDDSAELSELLGEGFLERVQGQGFVTKAWVEQEEVLKHESIGLFISHCGWNSVTEAAASGVPVLAWPRFGDQRVNAGVVARGGLGVWVERWSWEGEEDVVSGEEIAEKVKAVMADETVRKKAASVGEAAVKEFADGGTSYRSLTEFVRRCRDLAVLD
# notes: full-length ORF, pET28a (pCZ86), recombinant from E. coli, purified
# How the values were obtained:
# [1] = target: T1, SbF2H (CYP93G3; SbCYP93G3); test: E. coli whole-cell conversion, LC-MS of downstream vitexin/isovitexin; assay type: cell-based; conditions: coexpressed AtCPR2 and PhUGT708A43; naringenin made in vivo, 22 °C
# [2] = substrate: O=C1CC(O)(c2ccc(O)cc2)Oc2cc(O)cc(O)c21; test: HPLC of C-glucoside product, Michaelis-Menten fit; assay type: biochemical, Phyllostachys edulis; conditions: 400 μM UDP-glucose, 100 mM NaCl, 20 mM Tris-HCl pH 8.0, 37 °C, 20 min
# [3] = substrate: O=C(CCc1ccc(O)cc1)c1c(O)cc(O)cc1O; test: HPLC of C-glucoside product, Michaelis-Menten fit; assay type: biochemical, Phyllostachys edulis; conditions: 400 μM UDP-glucose, 100 mM NaCl, 20 mM Tris-HCl pH 8.0, 37 °C, 20 min
Molecule,"E. coli whole-cell conversion, LC-MS of downstream vitexin/isovitexin [1]",Km [2] [µM],Km [3] [µM]
"O=C1C[C@@H](c2ccc(O)cc2)Oc2cc(O)cc(O)c21 [Nar, naringenin]",truncated ZmF2H/AtCPR2 (sCZ2) and truncated SbF2H/AtCPR2 (sCZ29),–,–
B1,–,1.75 ± 0.66,15.83 ± 6.98
